Reference: patent publication US20240366761A1 (LEGEND BIOTECH IRELAND, published 2024)
Blank lines part the entries; values can stand above or below the binder they belong to.

Biological target: recombinant human TGFβ1 (human, UniProt P01137 279-390)
Assay: cell-based or functional assay

recombinant human TGFβ1, sequence (P01137 279-390 limits assumed): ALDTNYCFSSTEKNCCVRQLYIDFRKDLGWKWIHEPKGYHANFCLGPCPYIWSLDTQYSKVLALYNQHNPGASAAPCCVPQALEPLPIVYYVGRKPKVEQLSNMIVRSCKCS

B3: TGB23-2 fusion protein (TGFβ receptor and IL-23 receptor fusion protein) (receptor)
chain 1: TIPPHVQKSVNNDMIVTDNNGAVKFPQLCKFCDVRFSTCDNQKSCMSNCSITSICEKPQEVCVAVWRKNDENITLETVCHDPKLPYHDFILEDAASPKCIMKEKKKPGETFFMCSCSSDECNDNIIFSEEYNTSNPDLLLVIFQVTGISLLPPLGVAISVIIIFYCYRVNRQNRSFRTGIKRRILLLIPKWLYEDIPNMKNSNVVKMLQENSELMNNNSSEQVLYVDPMITEIKEIFIPEHKPTDYKKENTGPLETRDYPQNSLFDNTTVVYIPDLNTGYKPQISNFLPEGSHLSNNNEITSLTLKPPVDSLDSGNNPRLQKHPNFAFSVSSVNSLSNTIFLGELSLILNQGECSSPDIQNSVEEETTMLLENDSPSETIPEQTLLPDEFVSCLGIVNEELPSINTYFPQNILESHFNRISLLEK
chain 2: LQCFCHLCTKDNFTCVTDGLCFVSVTETTDKVIHNSMCIAEIDLIPRDRPFVCAPSSKTGSVTTTYCCNQDHCNKIELPTTVKSSPGLGPVELAAVIAGPVCFVCISLMLMVYICHNRTVNRAARHLCPPLPTPCASSAIEFPGGKETWQWINPVDFQEEASLQEALVVEMSWDKGERTEPLEKTELPEGAPELALDTELSLEDGDRCKAKM
- T cell number from day 0 to day 5 after transduction, culture with 20 ng/mL TGFβ1: > 4 fold

B4: TGB23-3 fusion protein (TGFβ receptor and IL-23 receptor fusion protein) (receptor)
chain 1: B3 chain 2
chain 2: B3 chain 1
- T cell number from day 0 to day 5 after transduction, culture with 20 ng/mL TGFβ1: > 4 fold

B5: TGB23-4 fusion protein (TGFβ receptor and IL-23 receptor fusion protein) (receptor)
chain 1: LQCFCHLCTKDNFTCVTDGLCFVSVTETTDKVIHNSMCIAEIDLIPRDRPFVCAPSSKTGSVTTTYCCNQDHCNKIELPTTVKSSPGLGPVELVPQVTSKAFQHDTWNSGLTVASISTGHLTSDNRGDIGLLLGMIVFAVMLSILSLIGIFNRSFRTGIKRRILLLIPKWLYEDIPNMKNSNVVKMLQENSELMNNNSSEQVLYVDPMITEIKEIFIPEHKPTDYKKENTGPLETRDYPQNSLFDNTTVVYIPDLNTGYKPQISNFLPEGSHLSNNNEITSLTLKPPVDSLDSGNNPRLQKHPNFAFSVSSVNSLSNTIFLGELSLILNQGECSSPDIQNSVEEETTMLLENDSPSETIPEQTLLPDEFVSCLGIVNEELPSINTYFPQNILESHFNRISLLEK
chain 2: TIPPHVQKSVNNDMIVTDNNGAVKFPQLCKFCDVRFSTCDNQKSCMSNCSITSICEKPQEVCVAVWRKNDENITLETVCHDPKLPYHDFILEDAASPKCIMKEKKKPGETFFMCSCSSDECNDNIIFSEEYNTSNPDLLLVIFQVSDWLIFFASLGSFLSILLVGVLGYLGLNRAARHLCPPLPTPCASSAIEFPGGKETWQWINPVDFQEEASLQEALVVEMSWDKGERTEPLEKTELPEGAPELALDTELSLEDGDRCKAKM
- T cell number from day 0 to day 5 after transduction, culture with 20 ng/mL TGFβ1: > 4 fold

More lines, now with the values ahead:

- T cell number from day 0 to day 5 after transduction, culture with 20 ng/mL TGFβ1: > 4 fold
B1: TGB23-5 fusion protein (TGFβ receptor and IL-23 receptor fusion protein) (receptor)
chain 1: TIPPHVQKSVNNDMIVTDNNGAVKFPQLCKFCDVRFSTCDNQKSCMSNCSITSICEKPQEVCVAVWRKNDENITLETVCHDPKLPYHDFILEDAASPKCIMKEKKKPGETFFMCSCSSDECNDNIIFSEEYNTSNPDLLLVIFQVPQVTSKAFQHDTWNSGLTVASISTGHLTSDNRGDIGLLLGMIVFAVMLSILSLIGIFNRSFRTGIKRRILLLIPKWLYEDIPNMKNSNVVKMLQENSELMNNNSSEQVLYVDPMITEIKEIFIPEHKPTDYKKENTGPLETRDYPQNSLFDNTTVVYIPDLNTGYKPQISNFLPEGSHLSNNNEITSLTLKPPVDSLDSGNNPRLQKHPNFAFSVSSVNSLSNTIFLGELSLILNQGECSSPDIQNSVEEETTMLLENDSPSETIPEQTLLPDEFVSCLGIVNEELPSINTYFPQNILESHFNRISLLEK
chain 2: LQCFCHLCTKDNFTCVTDGLCFVSVTETTDKVIHNSMCIAEIDLIPRDRPFVCAPSSKTGSVTTTYCCNQDHCNKIELPTTVKSSPGLGPVELVSDWLIFFASLGSFLSILLVGVLGYLGLNRAARHLCPPLPTPCASSAIEFPGGKETWQWINPVDFQEEASLQEALVVEMSWDKGERTEPLEKTELPEGAPELALDTELSLEDGDRCKAKM

- T cell number from day 0 to day 5 after transduction, culture with 20 ng/mL TGFβ1: > 4 fold
B2: TGB23-6 fusion protein (TGFβ receptor and IL-23 receptor fusion protein) (receptor)
chain 1: B1 chain 2
chain 2: B1 chain 1
